Reference: article PMC11350714 (JACS Au, 2024)

Target: the molecule itself
Assay: mass photometry

B1: MERS-CoV main protease (M^pro) (enzyme)
chain: SGLVKMSHPSGDVEACMVQVTCGSMTLNGLWLDNTVWCPRHVMCPADQLSDPNYDALLISMTNHSFSVQKHIGAPANLRVVGHAMQGTLLKLTVDVANPSTPAYTFTTVKPGAAFSVLACYNGRPTGTFTVVMRPNYTIKGSFLCGSCGSVGYTKEGSVINFCYMHQMELANGTHTGSAFDGTMYGAFMDKQVHQVQLTDKYCSVNVVAWLYAAILNGCAWFVKPNRTSVVSFNEWALANQFTEFVGTQSVDMLAVKTGVAIEQLLYAIQQLYTGFQGKQILGSTMLEDEFTPEDVNMQIMGVVMQ
stoichiometry N: 2
